US6103692

Molecular target: endogenous Ras (COS cells)

EGF or PMA-stimulated activation of Raf kinase in COS cells: > 85%
Substance: Myc-Raf (84-87A) (from UniProt P04049) (enzyme)
